Experiments:
[1] = target: gp70 env protein of amphotropic MLV (4070A envelope), on purified viral particles (amphotropic murine leukemia virus (4070A envelope)); assay: ELISA on plate-bound MLV, dilution factor 10, Exp121-Ana Plate 2
[2] = target: gp70 env protein of amphotropic MLV (4070A envelope), on purified viral particles (amphotropic murine leukemia virus (4070A envelope)); assay: ELISA on plate-bound MLV, dilution factor 50, Exp072-DTV Plate 2
[3] = target: gp70 env protein of amphotropic MLV (4070A envelope), on purified viral particles (amphotropic murine leukemia virus (4070A envelope)); assay: ELISA on plate-bound MLV, dilution factor 50, Exp074-DTV Plate 2
[4] = target: gp70 env protein of amphotropic MLV (4070A envelope), on purified viral particles (amphotropic murine leukemia virus (4070A envelope)); assay: ELISA on plate-bound MLV, dilution factor 50, Exp125-Ana Plate 2
[5] = target: gp70 env protein of amphotropic MLV (4070A envelope), on purified viral particles (amphotropic murine leukemia virus (4070A envelope)); assay: ELISA on plate-bound MLV, dilution factor 250, Exp072-DTV Plate 1
[6] = target: gp70 env protein of amphotropic MLV (4070A envelope), on purified viral particles (amphotropic murine leukemia virus (4070A envelope)); assay: ELISA on plate-bound MLV, dilution factor 250, Exp072-DTV Plate 2
[7] = target: gp70 env protein of amphotropic MLV (4070A envelope), on purified viral particles (amphotropic murine leukemia virus (4070A envelope)); assay: ELISA on plate-bound MLV, dilution factor 250, Exp073-DTV Plate 1
[8] = target: gp70 env protein of amphotropic MLV (4070A envelope), on purified viral particles (amphotropic murine leukemia virus (4070A envelope)); assay: ELISA on plate-bound MLV, dilution factor 250, Exp074-DTV Plate 2
[9] = target: gp70 env protein of amphotropic MLV (4070A envelope), on purified viral particles (amphotropic murine leukemia virus (4070A envelope)); assay: ELISA on plate-bound MLV, dilution factor 250, Exp121-Ana Plate 2
[10] = target: gp70 env protein of amphotropic MLV (4070A envelope), on purified viral particles (amphotropic murine leukemia virus (4070A envelope)); assay: ELISA on plate-bound MLV, dilution factor 250, Exp125-Ana Plate 2
[11] = target: gp70 env protein of amphotropic MLV (4070A envelope), on purified viral particles (amphotropic murine leukemia virus (4070A envelope)); assay: ELISA on plate-bound MLV, dilution factor 1250, Exp072-DTV Plate 2
[12] = target: gp70 env protein of amphotropic MLV (4070A envelope), on purified viral particles (amphotropic murine leukemia virus (4070A envelope)); assay: ELISA on plate-bound MLV, dilution factor 1250, Exp073-DTV Plate 2
[13] = target: gp70 env protein of amphotropic MLV (4070A envelope), on purified viral particles (amphotropic murine leukemia virus (4070A envelope)); assay: ELISA on plate-bound MLV, dilution factor 1250, Exp074-DTV Plate 2
[14] = target: gp70 env protein of amphotropic MLV (4070A envelope), on purified viral particles (amphotropic murine leukemia virus (4070A envelope)); assay: ELISA on plate-bound MLV, dilution factor 6250, Exp073-DTV Plate 1
[15] = target: gp70 env protein of amphotropic MLV (4070A envelope), on purified viral particles (amphotropic murine leukemia virus (4070A envelope)); assay: ELISA on plate-bound MLV, dilution factor 6250, Exp073-DTV Plate 2
[16] = target: gp70 env protein of amphotropic MLV (4070A envelope), on purified viral particles (amphotropic murine leukemia virus (4070A envelope)); assay: ELISA on plate-bound MLV, dilution factor 6250, Exp122-Ana Plate 1
[17] = target: gp70 env protein of amphotropic MLV (4070A envelope), on purified viral particles (amphotropic murine leukemia virus (4070A envelope)); assay: ELISA on plate-bound MLV, dilution factor 31250, Exp074-DTV Plate 2
[18] = target: gp70 env protein of amphotropic MLV (4070A envelope), on purified viral particles (amphotropic murine leukemia virus (4070A envelope)); assay: ELISA on plate-bound MLV, dilution factor 31250, Exp121-Ana Plate 1
[19] = target: gp70 env protein of amphotropic MLV (4070A envelope), on purified viral particles (amphotropic murine leukemia virus (4070A envelope)); assay: ELISA on plate-bound MLV, dilution factor 31250, Exp121-Ana Plate 2
[20] = target: gp70 env protein of amphotropic MLV (4070A envelope), on purified viral particles (amphotropic murine leukemia virus (4070A envelope)); assay: ELISA on plate-bound MLV, dilution factor 156250, Exp073-DTV Plate 2
[21] = target: gp70 env protein of amphotropic MLV (4070A envelope), on purified viral particles (amphotropic murine leukemia virus (4070A envelope)); assay: ELISA on plate-bound MLV, dilution factor 156250, Exp074-DTV Plate 1
[22] = target: gp70 env protein of amphotropic MLV (4070A envelope), on purified viral particles (amphotropic murine leukemia virus (4070A envelope)); assay: ELISA on plate-bound MLV, dilution factor 156250, Exp125-Ana Plate 2
[23] = target: gp70 env protein of amphotropic MLV (4070A envelope), on purified viral particles (amphotropic murine leukemia virus (4070A envelope)); assay: ELISA on plate-bound MLV, dilution factor 781250, Exp072-DTV Plate 2
[24] = target: gp70 env protein of amphotropic MLV (4070A envelope), on purified viral particles (amphotropic murine leukemia virus (4070A envelope)); assay: ELISA on plate-bound MLV, dilution factor 781250, Exp074-DTV Plate 1
[25] = target: gp70 env protein of amphotropic MLV (4070A envelope), on purified viral particles (amphotropic murine leukemia virus (4070A envelope)); assay: ELISA on plate-bound MLV, dilution factor 781250, Exp122-Ana Plate 1
[26] = target: gp70 env protein of amphotropic MLV (4070A envelope), on purified viral particles (amphotropic murine leukemia virus (4070A envelope)); assay: ELISA on plate-bound MLV, dilution factor 781250, inter-assay mean of six experiments

Chain of gp70 env protein of amphotropic MLV (4070A envelope), on purified viral particles (amphotropic murine leukemia virus (4070A envelope)) (P21995 whole entry): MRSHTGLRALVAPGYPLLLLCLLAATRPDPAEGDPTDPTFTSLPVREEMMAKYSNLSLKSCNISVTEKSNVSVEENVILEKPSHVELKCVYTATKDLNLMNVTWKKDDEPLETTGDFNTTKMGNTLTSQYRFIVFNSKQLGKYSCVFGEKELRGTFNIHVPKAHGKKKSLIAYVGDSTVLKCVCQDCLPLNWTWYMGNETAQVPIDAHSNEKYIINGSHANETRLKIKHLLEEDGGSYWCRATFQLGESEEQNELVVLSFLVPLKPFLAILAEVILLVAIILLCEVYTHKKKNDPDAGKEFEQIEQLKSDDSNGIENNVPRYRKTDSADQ

“83A25 monoclonal antibody (rat IgG2a, anti-gp70)” was tested, and the Mean OD [1] was 2.65 OD, the Mean OD [2] was 1.86 OD and the Mean OD [3] was 2.14 OD. The Mean OD [4] was 1.96 OD, the Mean OD [5] was 1.7 OD and the Mean OD [6] was 1.56 OD. For the same substance, the Mean OD [7] was 2.05 OD, the Mean OD [8] was 1.89 OD and the Mean OD [9] was 2.25 OD. It also gave a Mean OD [10] of 1.88 OD, a Mean OD [11] of 1.31 OD and a Mean OD [12] of 1.61 OD. It also gave a Mean OD [13] of 1.39 OD, a Mean OD [14] of 0.803 OD and a Mean OD [15] of 0.773 OD. It also gave a Mean OD [16] of 0.64 OD, a Mean OD [17] of 0.25 OD and a Mean OD [18] of 0.322 OD. The Mean OD [19] was 0.276 OD, the Mean OD [20] was 0.139 OD and the Mean OD [21] was 0.145 OD. For the same substance, the Mean OD [22] was 0.124 OD, the Mean OD [23] was 0.104 OD and the Mean OD [24] was 0.114 OD. The Mean OD [25] was 0.162 OD and the Mean OD (inter-assay mean) [26] was 0.118 OD.

— patent US20140178854A1
